Experimental data reported in FireProtDB (doi:10.1110/ps.8.7.1530).

B1: PTS system mannose-specific EIIAB component, P69797 (parent)
chain: MTIAIVIGTHGWAAEQLLKTAEMLLGEQENVGWIDFVPGENAETLIEKYNAQLAKLDTTKGVLFLVDTWGGSPFNAASRIVVDKEHYEVIAGVNIPMLVETLMARDDDPSFDELVALAVETGREGVKALKAKPVEKAAPAPAAAAPKAAPTPAKPMGPNDYMVIGLARIDDRLIHGQVATRWTKETNVSRIIVVSDEVAADTVRKTLLTQVAPPGVTAHVVDVAKMIRVYNNPKYAGERVMLLFTNPTDVERLVEGGVKITSVNVGGMAFRQGKTQVNNAVSVDEKDIEAFKKLNARGIELEVRKVSTDPKLKMMDLISKIDK

Variants of: B1
Details: Escherichia coli (strain K12); pH 7.4; 22 °C; GdnHCl; Fluorescence; Sodium phosphate 20 mM; reversible: yes; structure 1PDO; whole UniProt chain shown

W12F W69F
denaturant midpoint (higher = more stable): 2.1 M | unfolding free energy: 11 kcal/mol

W12F
denaturant midpoint (higher = more stable): 2.6 M | unfolding free energy: 14.1 kcal/mol

W69F
denaturant midpoint (higher = more stable): 2.1 M | unfolding free energy: 6.22 kcal/mol

W12F W33F
denaturant midpoint (higher = more stable): 2.2 M | unfolding free energy: 10.8 kcal/mol

W33F W69F
denaturant midpoint (higher = more stable): 1.8 M | unfolding free energy: 5.26 kcal/mol

W33F
denaturant midpoint (higher = more stable): 2.2 M | unfolding free energy: 8.37 kcal/mol
